Results on 6 molecules are retold here after patent publication US20230235012A1 (ALPINE IMMUNE SCIENCES, published 2023).

Experiment [1] has as its target T1, human CTLA-4 (human, UniProt P16410 36-223).
T1 construct: whole, on cells
As to the kind of experiment: flow cytometry, transfected cells; protein from CHO.

Experiment [2] deals with T2, human CD28 (human, UniProt P10747 19-220).
T2 construct: whole, on cells
The experiment is described as above.

Experiment [3] has as its target T3, human ICOS (human, UniProt Q9Y6W8 21-199).
T3 construct: whole, on cells
T3 sequence (looked up): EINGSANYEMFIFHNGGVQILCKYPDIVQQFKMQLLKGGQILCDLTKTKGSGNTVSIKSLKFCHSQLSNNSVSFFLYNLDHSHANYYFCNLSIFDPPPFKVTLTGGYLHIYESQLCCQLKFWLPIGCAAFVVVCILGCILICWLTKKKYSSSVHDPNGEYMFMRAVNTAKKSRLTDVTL
The description is as above.

In experiment [4] the target is T1, human CTLA-4. The experiment in a line: flow cytometry, transfected cells; protein from 293.
The target in experiment [5] is T2, human CD28. The description is as above.
The target of experiment [6] is T3, human ICOS. Described as above.
Experiment [7] has as its target T1, human CTLA-4. The experiment in a line: flow cytometry, transfected Expi293 cells.
Experiment [8] deals with T2, human CD28. As to the kind of experiment: flow cytometry, transfected Expi293 cells.
In experiment [9] the target is T3, human ICOS. The experiment in a line: flow cytometry, transfected Expi293 cells.
Experiment [10] concerns the target T1, human CTLA-4. As to the kind of experiment: flow cytometry, transfected cells; protein from CHO. The source holds these as a separate data set.
The target of experiment [11] is T2, human CD28. The description is as above. The source holds these as a separate data set.
Experiment [12] has as its target T3, human ICOS. Described as above. This is another data set of the same source.

T1 sequence (P16410 36-223): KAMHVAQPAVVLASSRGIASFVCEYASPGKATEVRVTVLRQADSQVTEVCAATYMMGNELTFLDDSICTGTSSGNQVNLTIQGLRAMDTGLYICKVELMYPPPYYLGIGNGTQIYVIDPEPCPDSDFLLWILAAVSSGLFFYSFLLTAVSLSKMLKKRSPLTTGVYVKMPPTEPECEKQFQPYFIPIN

B1: ICOSL ECD Truncation #7 with N52H/N57Y/Q100R/F172S, Fc fusion (Fc fusion)
chain: DTQEKEVRAMVGSDVELSCACPEGSRFDLNDVYVYWQTSESKTVVTYHIPQHSSLEYVDSRYRNRALMSPAGMLRGDFSLRLFNVTPQDEQKFHCLVLSRSLGFQEVLSVEVTLHVAANFSVPVVSAPHSPSQDELTFTCTSINGYPRPNVYWINKTDNSLLDQALQNDTVSLNMRGLYDVVSVLRIARTPSVNIGCCIENGGGGSGGGGSEPKSSDKTHTCPPCPAPEAEGAPSVFLFPPKPKDTLMISRTPEVTCVVVDVSHEDPEVKFNWYVDGVEVHNAKTKPREEQYNSTYRVVSVLTVLHQDWLNGKEYKCKVSNKALPAPIEKTISKAKGQPREPQVYTLPPSREEMTKNQVSLTCLVKGFYPSDIAVEWESNGQPENNYKTTPPVLDSDGSFFLYSKLTVDKSRWQQGNVFSCSVMHEALHNHYTQKSLSLSPG
Turning to B1, the MFI with human CTLA-4 [1] is 9040 MFI; with human CD28 [2], 13000 MFI; with human ICOS [3], 8080 MFI; with human CTLA-4 [4], 9670 MFI; with human CD28 [5], 12000 MFI; in the experiment with human ICOS [6], 7600 MFI. Besides, the “MFI ratio to WT” value with human CTLA-4 [1] turned out to be 0.7 fold; with human CD28 [2], 3.7 fold; in the experiment with human ICOS [3] it was 0.7 fold; in the experiment with human CTLA-4 [4], 0.8 fold; with human CD28 [5], 3.4 fold; in the experiment with human ICOS [6] it was 0.7 fold.

B2: ICOSL ECD N52H/N57Y/Q100R/F172S - G4S - Fc C220S/L234A/L235E/G237A (Fc fusion)
chain: DTQEKEVRAMVGSDVELSCACPEGSRFDLNDVYVYWQTSESKTVVTYHIPQHSSLEYVDSRYRNRALMSPAGMLRGDFSLRLFNVTPQDEQKFHCLVLSRSLGFQEVLSVEVTLHVAANFSVPVVSAPHSPSQDELTFTCTSINGYPRPNVYWINKTDNSLLDQALQNDTVSLNMRGLYDVVSVLRIARTPSVNIGCCIENVLLQQNLTVGSQTGNDIGERDKITENPVSTGEKNAATGGGGSEPKSSDKTHTCPPCPAPEAEGAPSVFLFPPKPKDTLMISRTPEVTCVVVDVSHEDPEVKFNWYVDGVEVHNAKTKPREEQYNSTYRVVSVLTVLHQDWLNGKEYKCKVSNKALPAPIEKTISKAKGQPREPQVYTLPPSREEMTKNQVSLTCLVKGFYPSDIAVEWESNGQPENNYKTTPPVLDSDGSFFLYSKLTVDKSRWQQGNVFSCSVMHEALHNHYTQKSLSLSPGK
Regarding B2, the MFI turned out to be 213000 MFI with human CTLA-4 [7], 67600 MFI in the experiment with human CD28 [8] and 107000 MFI with human ICOS [9]. Besides, the “MFI ratio to WT” value was 22.7 fold with human CTLA-4 [7], 12.9 fold with human CD28 [8] and 1.4 fold with human ICOS [9].

B3: ICOSL ECD N52H/N57Y/Q100P - G4S - Fc C220S/L234A/L235E/G237A (Fc fusion)
chain: DTQEKEVRAMVGSDVELSCACPEGSRFDLNDVYVYWQTSESKTVVTYHIPQHSSLEYVDSRYRNRALMSPAGMLRGDFSLRLFNVTPQDEQKFHCLVLSPSLGFQEVLSVEVTLHVAANFSVPVVSAPHSPSQDELTFTCTSINGYPRPNVYWINKTDNSLLDQALQNDTVFLNMRGLYDVVSVLRIARTPSVNIGCCIENVLLQQNLTVGSQTGNDIGERDKITENPVSTGEKNAATGGGGSEPKSSDKTHTCPPCPAPEAEGAPSVFLFPPKPKDTLMISRTPEVTCVVVDVSHEDPEVKFNWYVDGVEVHNAKTKPREEQYNSTYRVVSVLTVLHQDWLNGKEYKCKVSNKALPAPIEKTISKAKGQPREPQVYTLPPSREEMTKNQVSLTCLVKGFYPSDIAVEWESNGQPENNYKTTPPVLDSDGSFFLYSKLTVDKSRWQQGNVFSCSVMHEALHNHYTQKSLSLSPGK
As to B3, the MFI came out at 161000 MFI with human CTLA-4 [7], 69900 MFI in the experiment with human CD28 [8] and 104000 MFI in the experiment with human ICOS [9]. The “MFI ratio to WT” value with human CTLA-4 [7] was 17.1 fold; with human CD28 [8], 13.4 fold; with human ICOS [9] it was 1.3 fold.

B4: ICOSL ECD with N52H/N57Y/Q100R/C198R linked to Fc C220S/L234A/L235E/G237A (Table 30D) (Fc fusion)
chain: DTQEKEVRAMVGSDVELSCACPEGSRFDLNDVYVYWQTSESKTVVTYHIPQHSSLEYVDSRYRNRALMSPAGMLRGDFSLRLFNVTPQDEQKFHCLVLSRSLGFQEVLSVEVTLHVAANFSVPVVSAPHSPSQDELTFTCTSINGYPRPNVYWINKTDNSLLDQALQNDTVFLNMRGLYDVVSVLRIARTPSVNIGCRIENVLLQQNLTVGSQTGNDIGERDKITENPVSTGEKNAATEPKSSDKTHTCPPCPAPEAEGAPSVFLFPPKPKDTLMISRTPEVTCVVVDVSHEDPEVKFNWYVDGVEVHNAKTKPREEQYNSTYRVVSVLTVLHQDWLNGKEYKCKVSNKALPAPIEKTISKAKGQPREPQVYTLPPSREEMTKNQVSLTCLVKGFYPSDIAVEWESNGQPENNYKTTPPVLDSDGSFFLYSKLTVDKSRWQQGNVFSCSVMHEALHNHYTQKSLSLSPGK
B4: the MFI with human CTLA-4 [1] was 8750 MFI; with human CD28 [2], 12900 MFI; in the experiment with human ICOS [3], 7700 MFI; with human CTLA-4 [4], 8720 MFI; in the experiment with human CD28 [5], 13700 MFI; with human ICOS [6], 16700 MFI.

B5: ICOSL IgV with N52H/N57Y/Q100R, Fc fusion (Fc fusion)
chain: DTQEKEVRAMVGSDVELSCACPEGSRFDLNDVYVYWQTSESKTVVTYHIPQHSSLEYVDSRYRNRALMSPAGMLRGDFSLRLFNVTPQDEQKFHCLVLSRSLGFQEVLSVEVTLHVAANFSVGGGGSGGGGSEPKSSDKTHTCPPCPAPEAEGAPSVFLFPPKPKDTLMISRTPEVTCVVVDVSHEDPEVKFNWYVDGVEVHNAKTKPREEQYNSTYRVVSVLTVLHQDWLNGKEYKCKVSNKALPAPIEKTISKAKGQPREPQVYTLPPSREEMTKNQVSLTCLVKGFYPSDIAVEWESNGQPENNYKTTPPVLDSDGSFFLYSKLTVDKSRWQQGNVFSCSVMHEALHNHYTQKSLSLSPG
notes: also called ICOSCL IgV with N52H/N57Y/Q100R
With B5, the MFI turned out to be 9040 MFI in the experiment with human CTLA-4 [1]; 17300 MFI with human CD28 [2]; 8670 MFI in the experiment with human ICOS [3]; 9670 MFI with human CTLA-4 [4]; 16600 MFI with human CD28 [5]; 9380 MFI in the experiment with human ICOS [6]. Also, the MFI in the experiment with human CTLA-4 [10] turned out to be 205000 MFI; in the experiment with human CD28 [11], 84600 MFI; with human ICOS [12] it was 118000 MFI. In addition, the “MFI ratio to WT” value worked out at 0.7 fold in the experiment with human CTLA-4 [1]; 4.9 fold with human CD28 [2]; 0.7 fold with human ICOS [3]; 0.8 fold with human CTLA-4 [4]; 4.7 fold with human CD28 [5]; 0.8 fold in the experiment with human ICOS [6]. In addition, the results for the “MFI ratio to WT” value with human CTLA-4 [10], with human CD28 [11] and with human ICOS [12] were 27 fold, 49 fold and 1.2 fold, respectively.

B6: ICOSL ECD Truncation #4 with N52H/N57Y/Q100R/F172S, Fc fusion (Fc fusion)
chain: DTQEKEVRAMVGSDVELSCACPEGSRFDLNDVYVYWQTSESKTVVTYHIPQHSSLEYVDSRYRNRALMSPAGMLRGDFSLRLFNVTPQDEQKFHCLVLSRSLGFQEVLSVEVTLHVAANFSVPVVSAPHSPSQDELTFTCTSINGYPRPNVYWINKTDNSLLDQALQNDTVSLNMRGLYDVVSVLRIARTPSVNIGCCIENVLLQQNGGGGSGGGGSEPKSSDKTHTCPPCPAPEAEGAPSVFLFPPKPKDTLMISRTPEVTCVVVDVSHEDPEVKFNWYVDGVEVHNAKTKPREEQYNSTYRVVSVLTVLHQDWLNGKEYKCKVSNKALPAPIEKTISKAKGQPREPQVYTLPPSREEMTKNQVSLTCLVKGFYPSDIAVEWESNGQPENNYKTTPPVLDSDGSFFLYSKLTVDKSRWQQGNVFSCSVMHEALHNHYTQKSLSLSPG
For B6, the MFI was determined as 9000 MFI with human CTLA-4 [1]; 12700 MFI with human CD28 [2]; 7610 MFI with human ICOS [3]; 8840 MFI with human CTLA-4 [4]; 14700 MFI with human CD28 [5]; 6890 MFI with human ICOS [6]. Further, the MFI with human CTLA-4 [10] was determined as 377000 MFI; with human CD28 [11] it was 68600 MFI; in the experiment with human ICOS [12], 133000 MFI. The “MFI ratio to WT” value in the experiment with human CTLA-4 [1] amounted to 0.7 fold; with human CD28 [2], 3.6 fold; with human ICOS [3], 0.7 fold; in the experiment with human CTLA-4 [4] it was 0.7 fold; with human CD28 [5], 4.1 fold; with human ICOS [6] it was 0.6 fold. The “MFI ratio to WT” value in the experiment with human CTLA-4 [10] worked out at 49.8 fold; with human CD28 [11], 39.7 fold; with human ICOS [12], 1.3 fold.
